In the supplement of paper PMC10126150:
± gives the standard deviation of the averaged measurements.

These sequences were tested on ATP (assay: switch fluorescence ratio, 500 uM ATP over buffer (Cy3 cluster intensity, sum of 5 cycles each) (fold (ratio)); higher = stronger signal-on switching upon ATP binding; sequences stand for … in TCGTCGGCAGCGTCAGATGTGTATAAGAGACAGTTTTTTTTTTTTTTTTTTTTTTTTT…TC). Settings: aptamer strand: ATP DNA aptamer (quencher-CACCTGGGGGAGTATTGCGGAGGAAGG + anchor), 100 nM annealed; ATP concentration: 500 uM.
How it was run: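 Switching-strand clusters labelled with Cy3 on a modified Illumina MiSeq flow-cell were annealed to 100 nM quencher-labelled ATP aptamer, imaged in selection buffer, and re-imaged after 15 min with 500 uM ATP at 22 °C. This was done over five cycles with NaOH stripping and re-annealing in between. The fluorescence ratio is summed target-cycle over summed buffer-cycle Cy3 intensity per cluster, averaged per switch-domain sequence, excluding clusters outside 100-1000 RFU.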
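Further: ATP exposure 15 min at 22 °C before imaging.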

Row | Sequence | switch fluorescence ratio
1 | TAATTGGAGT | 0.972 ± 0.014
2 | ATGGGTGATA | 0.9935 ± 0.0092
3 | AAATGTTCGT | 1.011 ± 0.0058
4 | TAAGCTAAGG | 1.04 ± 0.016
5 | GATTCTTTTC | 0.991 ± 0.014
6 | ATATCCAATA | 0.99 ± 0.036
7 | AATGCATGGG | 0.989 ± 0.046
8 | TAGTGGGTTA | 0.974 ± 0.023
9 | TTTGGGAGAT | 0.951 ± 0.023
10 | GGGTCTGACT | 0.9998 ± 0.0017
11 | TTACATGTAA | 0.996 ± 0.023
12 | TTCCTCGCTT | 2.75 ± 1.6
13 | GGTTCTGGGT | 1 ± 0.02
14 | CAAATGCCCG | 0.934 ± 0.055
15 | GTTTTTGACT | 0.964 ± 0.03
16 | GGTAATAGAG | 0.987 ± 0.05
17 | TTGCATTTTC | 1.09 ± 0.11
18 | GCCGGAGCGG | 1.38 ± 0.062
19 | TCATACATTT | 0.9801 ± 0.0049
20 | ACGGGGAATG | 1.01 ± 0.056
21 | GGAATAAGGG | 0.995 ± 0.015
22 | ATAAGAGACT | 1.01 ± 0.03
23 | TCTACTGGGG | 0.994 ± 0.029
24 | TGGAAAGAAG | 1.02 ± 0.064
25 | CCGGGGGAAC | 1.14 ± 0.09

Row | Sequence | switch fluorescence ratio
26 | GTGTTTTAGG | 0.96 ± 0.032
27 | GAAACAGGAT | 1.02 ± 0.058
28 | ATTGATGGGG | 0.976 ± 0.042
29 | TTGCACTACT | 1.5 ± 0.025
30 | CGGGGGCTG | 1 ± 0.039
31 | GATTTGGGAC | 1.03 ± 0.05
32 | TCGGGGGAGC | 0.984 ± 0.025
33 | TGCAGGTTAC | 1.12 ± 0.015
34 | ACTTTTTGAG | 0.996 ± 0.032
35 | TTAAAAGGAG | 1.01 ± 0.044
36 | TGTTGCATAG | 1.01 ± 0.047
37 | TAGTTATGGG | 0.998 ± 0.044
38 | ATAGGGCTTG | 0.9746 ± 0.005
39 | ATAGGTATTC | 0.976 ± 0.026
40 | GCGCATGAAG | 0.983 ± 0.013
41 | AGGTTGGTGG | 1 ± 0.016
42 | GATAGGGTAT | 0.986 ± 0.015
43 | GTTTGCGGGC | 0.947 ± 0.0066
44 | GGGCCGGAAA | 1.01 ± 0.049
45 | TCTTTTGGGT | 0.9777 ± 0.0063
46 | TACAAGTTTG | 0.9965 ± 0.0053
47 | TTATTTGTGT | 0.987 ± 0.042
48 | CGGAGATTAC | 2.25 ± 0.035
49 | CGGTAGTCGA | 1.02 ± 0.052
50 | CTTTAACGTG | 0.9718 ± 0.004

Row | Sequence | switch fluorescence ratio
51 | ACGGGCATTC | 1.76 ± 0.42
52 | AGTTCGGGGA | 0.992 ± 0.014
53 | GTTTTATGG | 0.982 ± 0.019
54 | ACCGGTGCTT | 1.04 ± 0.032
55 | GAGATTGGGA | 1.04 ± 0.045
56 | GAGAGGGGAA | 1.01 ± 0.009
57 | CATTTTGTCT | 1.018 ± 0.0047
58 | TTTCCTGTGT | 1.01 ± 0.017
59 | CCGTTAGCTT | 2.2 ± 0.079
60 | TTGAGGGTTC | 0.96 ± 0.022
61 | AAACGCTGCG | 1.02 ± 0.035
62 | CTTACGCAGC | 1.59 ± 0.016
63 | CGGGAACTGT | 0.964 ± 0.07
64 | TCCAGTTGCT | 1.02 ± 0.033
65 | GTGTTGCCCG | 1.07 ± 0.038
66 | TAATTTGAGG | 0.955 ± 0.012
67 | ACCATTAGCA | 0.998 ± 0.022
68 | GATATATGAG | 0.997 ± 0.064
69 | TTAATGAAGG | 1 ± 0.025
70 | TGGGGTGAGG | 1 ± 0.035
71 | GGGGTCACGG | 1.006 ± 0.0027
72 | CCGATAGGGG | 1.05 ± 0.093
73 | GGGGGACTTC | 1.005 ± 0.01
74 | GCTGCTATTG | 0.994 ± 0.02
75 | ATTGTTTGTT | 1.01 ± 0.016

Row | Sequence | switch fluorescence ratio
76 | GCCAATTGCA | 0.97965 ± 0.00047
77 | TGACGGCCAG | 1.01 ± 0.013
78 | TAGAATCAGG | 1.055 ± 0.0011
79 | TTGCCGGGCA | 0.987 ± 0.032
80 | TTGAAAAATT | 1.03 ± 0.016
81 | AACTTTAACT | 1.04 ± 0.014
82 | GCTACAGCTA | 1.01 ± 0.04
83 | GGGTGGGGTT | 0.991 ± 0.017
84 | TGGTTTTCTT | 0.992 ± 0.03
85 | TTATCAGTTG | 1.01 ± 0.057
86 | GTCGGTAAGG | 0.982 ± 0.021
87 | TGGGTTAGGC | 0.97 ± 0.013
88 | TTGGATACGG | 0.995 ± 0.031
89 | TAAAGTAATT | 0.991 ± 0.039
90 | TTGGCGGCTA | 0.982 ± 0.024
91 | TAAGGTGTTG | 1.04 ± 0.024
92 | GGGGTAAGGG | 1 ± 0.028
93 | TGTTATATAT | 0.993 ± 0.032
94 | AATGAGGGCG | 0.9825 ± 0.0018
95 | GCTAGTTGGG | 0.9998 ± 0.0015
96 | GTTTACAGGC | 0.9875 ± 0.0092
97 | GTTTCAGGTT | 2.12 ± 1.6
98 | TATGGATCTA | 0.986 ± 0.048
99 | GATATTCGGG | 0.988 ± 0.017
100 | GCTCATAAAA | 1.001 ± 0.0065

Row | Sequence | switch fluorescence ratio
101 | TACTACTATT | 1.03 ± 0.016
102 | GTGGTTTTCG | 1.03 ± 0.062
103 | TGATTGGGCT | 1.03 ± 0.015
104 | TTGGGCCAGG | 1.14 ± 0.12
105 | AGATTTGTTG | 0.978 ± 0.034
106 | GGGCTAAATC | 1.01 ± 0.06
107 | CATACTAACG | 1.33 ± 0.062
108 | CGCGGTAGTC | 1.1 ± 0.046
109 | ACTTTAGTTA | 0.9756 ± 0.0025
110 | TCCAAGTGTT | 0.998 ± 0.035
111 | AAGGGTGATG | 1 ± 0.049
112 | CAGGGGGGGC | 1.01 ± 0.026
113 | TCAGCAAATT | 1.09 ± 0.041
114 | TCACTAGAGT | 0.9722 ± 0.0053
115 | AAGATCATTG | 0.98 ± 0.041
116 | CCTGTCTTCT | 0.9869 ± 0.0061
117 | GAGTGGTCGC | 1.002 ± 0.0014
118 | ATTTTCTTTG | 0.9958 ± 0.0089
119 | GTTGCGGAGT | 1 ± 0.021
120 | GACTAAGTGT | 1 ± 0.022
121 | ATATTGGCTA | 1 ± 0.0039
122 | TGTCAATTGG | 0.984 ± 0.021
123 | ATTGGGGATG | 0.9819 ± 0.0097
124 | GGTATTTTGG | 0.953 ± 0.035
125 | TAAGTGCGGA | 0.982 ± 0.011

Row | Sequence | switch fluorescence ratio
126 | TTAAAAGGGA | 1.02 ± 0.07
127 | GGTTTTTTTC | 1.02 ± 0.048
128 | GGGGGGTTGG | 0.989 ± 0.031
129 | CATTTGCGCA | 1.022 ± 0.0084
130 | CATACCCTTG | 1.01 ± 0.037
131 | GTTCGTCCTC | 1.03 ± 0.031
132 | GGGATCAGTA | 0.9602 ± 0.0055
133 | AAATGACAGT | 1.01 ± 0.028
134 | TGCATGTACA | 1.04 ± 0.037
135 | TTTTCTTTTA | 1.001 ± 0.0032
136 | TTTCCGACGT | 1.46 ± 0.62
137 | AGAGCCTGGG | 1.04 ± 0.02
138 | AGAGTGGTAG | 0.99 ± 0.013
139 | GTGTGTGGGG | 1.01 ± 0.048
140 | ACTCTTGCTT | 1.072 ± 0.0046
141 | TTTTCCTCCC | 1.28 ± 0.24
142 | TGTCGTTGGA | 0.998 ± 0.043
143 | TTGTTTTTCG | 0.978 ± 0.027
144 | GGGGCCACTG | 1.02 ± 0.023
145 | TTTAAAGGCA | 0.991 ± 0.011
146 | ATCGGTCTTG | 1 ± 0.004
147 | TAACACCTCT | 0.988 ± 0.068
148 | CGGCGGGGGC | 0.998 ± 0.022
149 | AGTATTCGGG | 0.976 ± 0.058
150 | TTTCGACCGA | 1.03 ± 0.033

Row | Sequence | switch fluorescence ratio
151 | TGGGCGCGGT | 0.975 ± 0.018
152 | TTGATATTTG | 1.01 ± 0.039
153 | TTTAGGGTTC | 1.04 ± 0.1
154 | GTTCAAATAG | 0.9884 ± 0.0095
155 | GATGGTTGTC | 1 ± 0.055
156 | CAATTTGGGG | 0.994 ± 0.02
157 | TAGCTTGTGG | 0.9912 ± 0.0062
158 | GATGATGGGG | 0.998 ± 0.044
159 | GGGGTGACGG | 1.004 ± 0.0055
160 | GGATGGGGAG | 0.971 ± 0.02
161 | TGATCATCTA | 0.993 ± 0.024
162 | TTTGACGGAA | 1.27 ± 0.28
163 | TAAAGTCATA | 1.01 ± 0.022
164 | ATATTAAAAC | 0.988 ± 0.034
165 | TAGCGGCGTC | 1 ± 0.098
166 | AAGATCACGG | 0.971 ± 0.057
167 | AGTTACAGCT | 1.03 ± 0.032
168 | TTTCCCGGGT | 1.0123 ± 0.00051
169 | TTGGGCTCTG | 0.988 ± 0.018
170 | GTCATTCCGC | 1.65 ± 0.065
171 | AGTGGACAGC | 1 ± 0.031
172 | GGTTCTTGG | 0.995 ± 0.062
173 | TGGTTGATAG | 0.9916 ± 0.0065
174 | GGGGTACGTA | 1 ± 0.08
175 | TAATTTTAGC | 0.9913 ± 0.0086

Row | Sequence | switch fluorescence ratio
176 | GCGGTAATTT | 1 ± 0.024
177 | TTGAATTAAG | 0.982 ± 0.032
178 | AGTAGGTCTG | 1.04 ± 0.046
179 | TGGGATTGGC | 1.01 ± 0.11
180 | TCAGGCATTG | 0.979 ± 0.018
181 | TTTTTCAAGA | 0.9897 ± 0.0088
182 | TTAGTGAAGG | 1.01 ± 0.023
183 | TAAGTTTTTT | 0.99 ± 0.02
184 | AGCTGAGTAG | 0.997 ± 0.035
185 | AAGGGCAACG | 0.974 ± 0.063
186 | CAGAGGCGTG | 0.9831 ± 0.0079
187 | ATCGGATATA | 0.989 ± 0.015
188 | AGATTTTGGT | 0.9954 ± 0.0026
189 | CTCGGTATGC | 1.257 ± 0.0034
190 | AAGCGACTCG | 1.006 ± 0.0056
191 | TGCAATTGGT | 1.01 ± 0.016
192 | TGTTGGAGTG | 1.003 ± 0.0044
193 | AACTTCGGTG | 0.984 ± 0.014
194 | CCTCGTTTTT | 1.11 ± 0.053
195 | GTAATGGAAT | 0.9912 ± 0.0078
196 | GAGGTGTAGA | 1.05 ± 0.022
197 | CTCTTTGGAC | 1.53 ± 0.89
198 | GGCCTCTTTT | 0.966 ± 0.039
199 | ACGGAGACCG | 1.01 ± 0.038
200 | TGGTAAATGG | 1.01 ± 0.019
